The series deals with the molecule itself. Kind of series: cross-linking.

B1: recombinant PKM2-C423/424A (enzyme)
chain: not shown
By stoichiometry N is commonly meant a count of units in the complex or per binding partner. Turning to B1, the “stoichiometry N” value was 4.
